From the supplement of paper PMC7125110
± gives the standard error. Fewer inactive variants are shown than the library holds.

B1: glmS ribozyme (parent)
chain: AUAAAAGCGCCAGAACUACAGAAAUGUAGUUGACGAGGAGGAGGUUUAUCGAAUUUUCGGCGGAUGCCUCCAAA

Legend:
Conditions in all cases: with glucosamine-6-phosphate
[1] = variants of: B1; experiment: self-cleavage kobs at 40 uM GlcN6P; higher = faster cleavage; RNA array
Method in brief: (§1)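 Weighted Michaelis–Menten fits across concentrations supplied kcat and KM, based on kobs from one- or two-exponential decay fits to normalised per-tile medians. The data came from barcoded ribozyme variants transcribed in situ by E. coli RNA polymerase on sequenced MiSeq chips and tracked at 37 °C by a hybridised Cy3 probe. Glucosamine-6-phosphate (40 μM to 10 mM) in HEPES/KCl/Mg(OAc)2 buffer was flowed in.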

[2] = variants of: B1; experiment: self-cleavage kobs at 640 uM GlcN6P; higher = faster cleavage; RNA array
Method in brief: as §1

[3] = variants of: B1; experiment: self-cleavage kobs at 160 uM GlcN6P; higher = faster cleavage; RNA array
Method in brief: as §1

[4] = variants of: B1; experiment: self-cleavage kobs at 10000 uM GlcN6P; higher = faster cleavage; RNA array
Method in brief: as §1

[5] = variants of: B1; experiment: self-cleavage kobs at 2500 uM GlcN6P; higher = faster cleavage; RNA array
Method in brief: as §1

Variant | self-cleavage kobs at 40 uM GlcN6P [1] [s⁻¹] | self-cleavage kobs at 640 uM GlcN6P [2] [s⁻¹] | self-cleavage kobs at 160 uM GlcN6P [3] [s⁻¹] | self-cleavage kobs at 10000 uM GlcN6P [4] [s⁻¹] | self-cleavage kobs at 2500 uM GlcN6P [5] [s⁻¹]
C11G U31A U49G | < 1e-05 |  |  |  | 
A6C A52U C70U | < 1e-05 | < 1e-05 |  |  | 
A6C A12G U69G | < 1e-05 |  | < 1e-05 | < 1e-05 | 
G51U A64G | < 1e-05 |  | < 1e-05 |  | < 1e-05
A36U C50U A52G C70G | 0.000113 ± 3.1e-05 | 0.000329 ± 7.9e-05 |  |  | 0.000173 ± 8.2e-05
G32U U65C | < 1e-05 | < 1e-05 | < 1e-05 |  | < 1e-05
G37A G51A A53C | < 1e-05 |  |  | < 1e-05 | 
C34U A52C | < 1e-05 | < 1e-05 | < 1e-05 | < 1e-05 | < 1e-05
G37U G44C | < 1e-05 | < 1e-05 | < 1e-05 |  | 
C34A U57C | < 1e-05 |  | < 1e-05 | < 1e-05 | < 1e-05
G7A A33U A52U C70U | < 1e-05 |  |  |  | < 1e-05
A48U G66C | < 1e-05 |  | < 1e-05 |  | 
G9U C16A | < 1e-05 | < 1e-05 | < 1e-05 | < 1e-05 | < 1e-05
G9C G13U G44C U45G | < 1e-05 | < 1e-05 |  |  | < 1e-05
A39U U55C | 0.000475 ± 4.6e-05 | 0.00443 ± 0.00071 | 0.00102 ± 0.00013 | 0.0244 ± 0.0038 | 0.00902 ± 0.002
G32C A53U G59C C71U | < 1e-05 | < 1e-05 |  | < 1e-05 | 
G7A A14G U49C | < 1e-05 |  |  | < 1e-05 | 
U49C U57A | < 1e-05 |  |  |  | 
G7U C16G A36C A42C A52G | < 1e-05 |  |  |  | 
C8G U47G C68A | < 1e-05 |  |  |  | < 1e-05
A36C U45A | < 1e-05 |  | < 1e-05 | < 1e-05 | 
C19A C67A | 0.000243 ± 6.1e-05 | 0.00033 ± 9.6e-05 |  | 0.000881 ± 0.00024 | 
C10U C68A C71U | < 1e-05 |  |  |  | 
A6C A33U | < 1e-05 | < 1e-05 |  | < 1e-05 | < 1e-05

Variant | self-cleavage kobs at 40 uM GlcN6P [1] [s⁻¹] | self-cleavage kobs at 640 uM GlcN6P [2] [s⁻¹] | self-cleavage kobs at 160 uM GlcN6P [3] [s⁻¹] | self-cleavage kobs at 10000 uM GlcN6P [4] [s⁻¹] | self-cleavage kobs at 2500 uM GlcN6P [5] [s⁻¹]
C16A G29C U56G A64G | 2.81e-05 ± 1.4e-05 |  |  | 0.00203 ± 0.00038 | 
C10A C11G G60U C61G | < 1e-05 |  |  | < 1e-05 | 
G9U G66A | < 1e-05 | < 1e-05 | < 1e-05 | < 1e-05 | 
U55G G63A | < 1e-05 | < 1e-05 | < 1e-05 | < 1e-05 | < 1e-05
A33U G51U | < 1e-05 |  | < 1e-05 |  | 
U54A C71G | 0.000131 ± 2.1e-05 | 0.000507 ± 0.00011 | 0.000336 ± 0.00012 | 0.00197 ± 0.00046 | 0.000368 ± 0.00016
G7A U31C A48U | < 1e-05 |  |  |  | 
A6C C10U C67A | < 1e-05 |  |  |  | 
C58A G63U | < 1e-05 | < 1e-05 | < 1e-05 |  | < 1e-05
G9A G29C G32C U45C A53C | < 1e-05 |  |  |  | 
G41C G60U | < 1e-05 | < 1e-05 | < 1e-05 |  | < 1e-05
A6G U30C G35A A39G G40A G66A | < 1e-05 |  |  | < 1e-05 | 
C8G A14C | < 1e-05 | < 1e-05 | < 1e-05 | < 1e-05 | < 1e-05
C11A G41C | < 1e-05 | < 1e-05 | < 1e-05 |  | < 1e-05
C11A U31C G44C C70U | < 1e-05 |  |  |  | 
G7C C11U | < 1e-05 | < 1e-05 | < 1e-05 | < 1e-05 | < 1e-05
C34A U56C A64C | < 1e-05 |  |  |  | 
G9C G44A | < 1e-05 | < 1e-05 | < 1e-05 | < 1e-05 | < 1e-05
G40U G43U | < 1e-05 | < 1e-05 | < 1e-05 | < 1e-05 | 
G7C C16A U47C A53U | < 1e-05 |  |  | < 1e-05 | 
G7U A52G | < 1e-05 |  | < 1e-05 |  | 
G62U G63U | < 1e-05 |  | < 1e-05 | < 1e-05 | < 1e-05
C16G G29U | 0.000398 ± 5.9e-05 | 0.00183 ± 0.00046 | 0.00129 ± 0.00034 | 0.0203 ± 0.0044 | 0.00758 ± 0.0015
A42C G62C | < 1e-05 |  | < 1e-05 | < 1e-05 | 

Variant | self-cleavage kobs at 40 uM GlcN6P [1] [s⁻¹] | self-cleavage kobs at 640 uM GlcN6P [2] [s⁻¹] | self-cleavage kobs at 160 uM GlcN6P [3] [s⁻¹] | self-cleavage kobs at 10000 uM GlcN6P [4] [s⁻¹] | self-cleavage kobs at 2500 uM GlcN6P [5] [s⁻¹]
C11A U57A G60U | < 1e-05 |  |  |  | 
G63A U65G G66U | < 1e-05 |  |  | < 1e-05 | < 1e-05
U46A U49G | < 1e-05 |  |  | 2.85e-05 ± 1.2e-05 | 
U47G U56G C70A | 7.34e-05 ± 2.5e-05 | 6.47e-05 ± 1.3e-05 | 0.000192 ± 3.8e-05 | 6.01e-05 ± 1.4e-05 | 7.39e-05 ± 1.8e-05
U55C C68G | < 1e-05 |  |  | < 1e-05 | 
U31A A52G C67G | 6.56e-05 ± 1.9e-05 |  |  | 9.04e-05 ± 1.2e-05 | 
C16U A36U A64G | < 1e-05 |  |  |  | 
G13C A64C | < 1e-05 |  | < 1e-05 | < 1e-05 | < 1e-05
C11A G38U C67G C68U | 0.000296 ± 7.3e-05 |  |  | 0.000394 ± 9.3e-05 | 
G13C U31A G51A | < 1e-05 |  |  |  | 
G44U U49C U57A | < 1e-05 | < 1e-05 |  |  | 
A15U G35U | < 1e-05 | < 1e-05 | < 1e-05 | < 1e-05 | < 1e-05
A39G U56C C71U | 7.63e-05 ± 2.3e-05 |  |  |  | 
G9A C67U | < 1e-05 |  | < 1e-05 |  | < 1e-05
A48G A52G C58U | < 1e-05 |  |  |  | 
C8G U30G | < 1e-05 | < 1e-05 | < 1e-05 | < 1e-05 | 
G41A U45C C70U | 9.09e-05 ± 2e-05 |  |  | 0.00358 ± 0.00079 | 0.00174 ± 0.00052
U31A G32U A36U G59A | < 1e-05 |  |  | < 1e-05 | 
G51A U57A | < 1e-05 |  |  | < 1e-05 | 
G51U A53G | < 1e-05 | < 1e-05 | < 1e-05 |  | < 1e-05
A6G A12C G35A G41U C71A | < 1e-05 |  |  |  | 
A52U A64G C70A | < 1e-05 |  |  |  | 
G7U G41U | < 1e-05 | < 1e-05 | < 1e-05 | < 1e-05 | < 1e-05
U47C A48C | < 1e-05 |  | < 1e-05 |  | 

Variant | self-cleavage kobs at 40 uM GlcN6P [1] [s⁻¹] | self-cleavage kobs at 640 uM GlcN6P [2] [s⁻¹] | self-cleavage kobs at 160 uM GlcN6P [3] [s⁻¹] | self-cleavage kobs at 10000 uM GlcN6P [4] [s⁻¹] | self-cleavage kobs at 2500 uM GlcN6P [5] [s⁻¹]
A12G G63U | < 1e-05 |  | < 1e-05 | < 1e-05 | 
G40A C71A | 0.00036 ± 4.6e-05 | 0.00251 ± 0.00036 | 0.000678 ± 0.00011 | 0.0185 ± 0.0049 | 0.00849 ± 0.0017
G29U U49A U57C C70G | < 1e-05 |  |  |  | 
G35C C50U | < 1e-05 | < 1e-05 | < 1e-05 | < 1e-05 | < 1e-05
A39U U54A | 0.000568 ± 6.6e-05 | 0.00339 ± 0.00076 |  |  | 
C10U G60C | < 1e-05 | < 1e-05 | < 1e-05 | < 1e-05 | < 1e-05
A39U G40C G43U | < 1e-05 |  |  | < 1e-05 | 
G9C A33U | < 1e-05 | < 1e-05 | < 1e-05 | < 1e-05 | < 1e-05
A12U A52C | < 1e-05 |  |  | 4.23e-05 ± 1.8e-05 | 
G41A U46C | < 1e-05 |  |  | 4.37e-05 ± 1.2e-05 | 
C11G G13A G32U | < 1e-05 |  |  |  | 
G35U G37U G63U U65C | < 1e-05 |  |  |  | 
A12C G43C G66U | < 1e-05 |  |  | < 1e-05 | 
G7C A12G | < 1e-05 |  |  | < 1e-05 | < 1e-05
G43A G44U | < 1e-05 | < 1e-05 | < 1e-05 | < 1e-05 | 
A39C C50A G60A C61U U65A | < 1e-05 |  |  | < 1e-05 | 
A12U C16A G29A A53U | 9.7e-05 ± 2e-05 |  |  |  | 
G43C G59U | < 1e-05 | < 1e-05 | < 1e-05 | < 1e-05 | < 1e-05
A48G C50A | < 1e-05 | < 1e-05 | < 1e-05 |  | < 1e-05
G7U A52C C70U | < 1e-05 | < 1e-05 |  | < 1e-05 | < 1e-05
U46C A64C | < 1e-05 |  |  | < 1e-05 | < 1e-05
